From PMC7288244

Legend:
the FcγR = experiment: fluorescence correlation spectroscopy
[1] = target: Human Recombinant FcγR receptor IIA/CD32a (human) (UniProt P12318); experiment: ELISA
UniProt P12318, sequence (P12318 34-217): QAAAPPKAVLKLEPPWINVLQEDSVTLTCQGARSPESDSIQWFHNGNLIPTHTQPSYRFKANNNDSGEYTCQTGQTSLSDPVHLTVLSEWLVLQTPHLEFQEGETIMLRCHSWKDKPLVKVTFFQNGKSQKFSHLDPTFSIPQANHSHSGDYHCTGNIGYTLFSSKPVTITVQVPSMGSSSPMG

Substance | stoichiometry N (the FcγR) | EC50 [1] [nM]
human IgG1 mAb C11-LALA (antibody) | 1 | 
immune complex of N5-i5-LALA with FLSC |  | 6
immune complex of C11-LALA with FLSC |  | 0.6
human IgG1 mAb N5-i5-LALA (antibody) | 1 | 
